Laboratory results: patent US20180222996A1 (SCOTT AND WHITE HEALTHCARE SWH, published 2018)

Target: T1, Human CD123 on stably transfected CHO-K1 cells (CHO-CD123) (human, UniProt P26951 19-378)
T1 construct: whole, on cells; also called IL-3 receptor alpha subunit; cell surface CD123
Assay: flow cytometry on CHO-CD123 cells, 1 µg/ml
Protocol: Log phase growing monolayer cells were harvested with trypsin/EDTA solution (ATCC) and washed once with culture media and once with PBS containing 1% BSA. 1×10⁶ cells were resuspended in 200 μl staining solution (PBS, 1% BSA, 3% normal goat serum and indicated concentration of 12F1, 12F1scFv-Fc or CD123xCD3 BIf) at room temperature for 1 hour. Human IgG1 (Sigma) was used as a control. Cells were rinsed twice with PBS containing 1% BSA and incubated with PE-conjugated goat anti-human or anti-mouse antibody (Jackson Lab) at room temperature for 1 hour. Cells were thrice washed with PBS containing 1% BSA, resuspended in 500 μl of PBS and analyzed on a Beckman Coulter Cytomic FC 500 flow cytometry.
The abilities of 12F1scFv-Fc and CD123xCD3 BIf to bind cell surface CD123 were examined by flow cytometry using CHO-K1 and CHO-CD123. 12F1 murine monoclonal antibody was used as a positive control. […] The binding affinities were tested in cell-based ELISA with CHO-CD123 cells.

T1 sequence (P26951 19-378): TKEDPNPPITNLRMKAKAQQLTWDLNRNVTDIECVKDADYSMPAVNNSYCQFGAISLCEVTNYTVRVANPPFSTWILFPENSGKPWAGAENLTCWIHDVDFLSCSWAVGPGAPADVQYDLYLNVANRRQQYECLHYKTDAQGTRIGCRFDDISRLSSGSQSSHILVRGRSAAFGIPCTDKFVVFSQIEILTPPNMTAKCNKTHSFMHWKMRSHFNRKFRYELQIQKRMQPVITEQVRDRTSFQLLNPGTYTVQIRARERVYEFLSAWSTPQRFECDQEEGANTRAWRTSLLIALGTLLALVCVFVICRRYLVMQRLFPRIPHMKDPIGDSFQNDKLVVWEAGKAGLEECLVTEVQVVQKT

B1: 12F1 murine anti-human CD123 monoclonal antibody (antibody, V domains shown)
VH: VQLQESGPGLVKPSQSLSLTCSVTDYSITSGYYWNWIRQFPGNKLEWMGYISYDGSNNYNPSLKNRISITRDTSKNQFFLKLSSVTTEDTATYYCSRGEGFYFDSWGQGTTLTVSS
VL: DIMMSQSPSSLAVSVGEKFTMTCKSSQSLFFGSTQKNYLAWYQQKPGQSPKLLIYWASTRESGVPDRFTGSGSGTDFTLAISSVMPEDLAVYYCQQYYNYPWTFGGGTKLEIK
notes: Murine monoclonal antibody from hybridoma
B1: binds.
